# Assay results published in PMC12729873, “Linoleic Hydroperoxides Are Potent Hyperoxidative Agents of Sensitive and Robust Typical 2-Cys Peroxiredoxins” (Antioxidants, 2025).
# B1: SeAhpC (Staphylococcus epidermidis RP62A) (protein)
# chain: MSLINKEILPFTAQAYDPKKDEFKEVTQEDFKGSWNVVCFYPADFSFVCPTELEDLQNQYAKLQELGVNVYSVSTDTHFVHKAWHDHSDAISKLEYSMIGDPSQTITRNFDVLDEETGLAQRGTFIIDPDGVVQAAEINADGIGRDASTLVNKIKAAQYVRQHPGEVCPAKWEEGSESLQPGLDLVGKI
# How the values were obtained:
# Test in all cases: purified protein
# CC(C)(OO)c1ccccc1 [1] = conditions: S. cerevisiae Trx1/TrxR1, NADPH 150 µM, HEPES pH 7.4, 37 °C, DTPA 100 µM, azide 1 mM, fit to low-substrate phase only
# CC(C)(OO)c1ccccc1 [2] = format: biochemical, Pseudomonas aeruginosa; conditions: E. coli Trx/TrxR, NADPH 150 µM, HEPES pH 7.4, 37 °C, DTPA 100 µM, azide 1 mM, fit to low-substrate phase only
# purified protein = substrate: CC(C)(OO)c1ccccc1; conditions: E. coli Trx/TrxR, NADPH 150 µM, HEPES pH 7.4, 37 °C, DTPA 100 µM, azide 1 mM, fit to low-substrate phase only
molecule,measurement,setting,value
HsPrx2 (Homo sapiens),Km,CC(C)(OO)c1ccccc1 [1],57 (±17) µM
same,Vmax,CC(C)(OO)c1ccccc1 [1],101 µM/min
same,kcat,CC(C)(OO)c1ccccc1 [1],0.56 ± 0.09 s⁻¹
same,kcat/Km,CC(C)(OO)c1ccccc1 [1],9800 ± 1300 M⁻¹ s⁻¹
PaAhpC (Pseudomonas aeruginosa UCBPP-PA14),Km,CC(C)(OO)c1ccccc1 [2],82 (±14) µM
same,Vmax,CC(C)(OO)c1ccccc1 [2],34.2 µM/min
same,kcat,CC(C)(OO)c1ccccc1 [2],0.18 ± 0.01 s⁻¹
same,kcat/Km,CC(C)(OO)c1ccccc1 [2],2000 ± 200 M⁻¹ s⁻¹
B1,Km,purified protein,76 (±10) µM
same,Vmax,purified protein,35.4 µM/min
same,kcat,purified protein,0.19 ± 0.01 s⁻¹
same,kcat/Km,purified protein,2500 ± 100 M⁻¹ s⁻¹
